Assay results: paper PMC5132341, “Malaria parasite CelTOS targets the inner leaflet of cell membranes for pore-dependent disruption” (eLife, 2016)

Assays:
[1] = target: Plasmodium vivax cell-traversal protein for ookinetes and sporozoites (PvCelTOS), amino acids 36-196 (Plasmodium vivax); assay: AUC; sedimentation equilibrium, 10°C, 150 mM NaCl, 10 mM HEPES pH 7.4, 12,000 and 15,000 rpm; PfCelTOS at 25, 36 and 46 µM, PvCelTOS at 29, 41 and 53 µM; single component model
[2] = target: the molecule itself; assay: as above

Row | Molecule | stoichiometry N [1] | stoichiometry N [2]
1 | Plasmodium vivax cell-traversal protein for ookinetes and sporozoites (PvCelTOS), amino acids 36-196 (domain or fragment) | 2 | 
2 | Plasmodium falciparum cell-traversal protein for ookinetes and sporozoites (PfCelTOS), amino acids 25-182 (domain or fragment, CelTOS of Plasmodium falciparum, UniProtKB Q8I5P1, amino acids 25-182, codon-optimized gene; No cleavage of the hexahistidine tag is described; the same preparation is detected with an anti-His antibody in the lipid strip assay, so the tag was probably kept; also called Antigen 2; source: E. coli, purified (Nickel-NTA chromatography, gel filtration on Superdex 200)) FRGNNGHNSSSSLYNGSQFIEQLNNSFTSAFLESQSMNKIGDDLAETISNELVSVLQKNSPTFLESSFDIKSEVKKHAKSMLKELIKVGLPSFENLVAENVKPPKVDPATYGIIVPVLTSLFNKVETAVGAKVSDEIWNYNSPDVSESEESLSDDFFD |  | 2
